IntAct's records for PubMed 27314904

B1: WW domain-binding protein 11 (Homo sapiens), Q9Y2W2 (parent)
chain: MGRRSTSSTKSGKFMNPTDQARKEARKRELKKNKKQRMMVRAAVLKMKDPKQIIRDMEKLDEMEFNPVQQPQLNEKVLKDKRKKLRETFERILRLYEKENPDIYKELRKLEVEYEQKRAQLSQYFDAVKNAQHVEVESIPLPDMPHAPSNILIQDIPLPGAQPPSILKKTSAYGPPTRAVSILPLLGHGVPRLPPGRKPPGPPPGPPPPQVVQMYGRKVGFALDLPPRRRDEDMLYSPELAQRGHDDDVSSTSEDDGYPEDMDQDKHDDSTDDSDTDKSDGESDGDEFVHRDNGERDNNEEKKSGLSVRFADMPGKSRKKKKNMKELTPLQAMMLRMAGQEIPEEGREVEEFSEDDDEDDSDDSEAEKQSQKQHKEESHSDGTSTASSQQQAPPQSVPPSQIQAPPMPGPPPLGPPPAPPLRPPGPPTGLPPGPPPGAPPFLRPPGMPGLRGPLPRLLPPGPPPGRPPGPPPGPPPGLPPGPPPRGPPPRLPPPAPPGIPPPRPGMMRPPLVPPLGPAPPGLFPPAPLPNPGVLSAPPNLIQRPKADDTSAATIEKKATATISAKPQITNPKAEITRFVPTALRVRRENKGATAAPQRKSEDDSAVPLAKAAPKSGPSVPVSVQTKDDVYEAFMKEMEGLL
B2: Polyglutamine-binding protein 1 (Homo sapiens), O60828 (parent)
chain: MPLPVALQTRLAKRGILKHLEPEPEEEIIAEDYDDDPVDYEATRLEGLPPSWYKVFDPSCGLPYYWNADTDLVSWLSPHDPNSVVTKSAKKLRSSNADAEEKLDRSHDKSDRGHDKSDRSHEKLDRGHDKSDRGHDKSDRDRERGYDKVDRERERDRERDRDRGYDKADREEGKERRHHRREELAPYPKSKKAVSRKDEELDPMDPSSYSDAPRGTWSTGLPKRNEAKTGADTTAAGPLFQQRPYPSPGAVLRANAEASRTKQQD

Variants of: B1
Settings: with pqbp1_human PQBP1, O60828

| effect of a mutation on the interaction | Variant |
| --- | --- |
| decreasing interaction | P455A;R456A;L457A;L458A |

Variants of: B1
Settings: with pqbp1_human PQBP1, O60828
Remark: another data set of the same source

| effect of a mutation on the interaction | Variant |
| --- | --- |
| decreasing interaction | P459A;P460A;G461A |

Variants of: B1
Settings: with pqbp1_human PQBP1, O60828
Remark: another data set of the same source

| effect of a mutation on the interaction | Variant |
| --- | --- |
| disrupting interaction | P462A;P463A;P464A;G465A |

Variants of: B1
Settings: with pqbp1_human PQBP1, O60828
Remark: another data set of the same source

| effect of a mutation on the interaction | Variant |
| --- | --- |
| decreasing interaction | R466A;P467A;P468A;G469A |

Variants of: B2
Settings: with wbp11_human WBP11, Q9Y2W2

| effect of a mutation on the interaction | Variant |
| --- | --- |
| disrupting interaction | Y64A |
| disrupting interaction | Y65C |
| disrupting interaction | W66A |
| decreasing interaction | V73A |
| disrupting interaction | W75A |
